Reference: patent publication US20230111363A1 (LMMUNOMETABOLISM DEVELOPMENT, published 2023)

T1: human monocarboxylate transporter 1 (MCT1) (human, UniProt P53985 1-500)
T1 construct: Multi-pass transmembrane transporter, endogenous on HEK WT / HEK293T cells and on primary human T and B cells in the assays; also called human MCT1; SLC16A1
T1 sequence: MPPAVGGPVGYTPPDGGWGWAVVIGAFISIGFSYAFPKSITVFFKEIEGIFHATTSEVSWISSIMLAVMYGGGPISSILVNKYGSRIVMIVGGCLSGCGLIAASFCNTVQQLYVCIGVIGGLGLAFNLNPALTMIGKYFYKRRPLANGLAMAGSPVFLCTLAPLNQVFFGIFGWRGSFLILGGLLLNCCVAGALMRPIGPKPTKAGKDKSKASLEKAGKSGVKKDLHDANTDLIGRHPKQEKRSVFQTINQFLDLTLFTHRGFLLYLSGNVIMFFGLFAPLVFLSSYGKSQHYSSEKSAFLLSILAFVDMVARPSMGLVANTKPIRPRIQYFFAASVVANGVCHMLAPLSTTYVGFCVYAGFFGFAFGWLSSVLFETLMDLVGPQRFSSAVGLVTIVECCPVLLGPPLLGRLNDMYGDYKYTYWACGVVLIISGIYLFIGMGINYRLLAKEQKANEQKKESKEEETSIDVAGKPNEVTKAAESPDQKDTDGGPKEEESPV

B1: INX444 IgG1EN (antibody)
heavy: QVQLKESGPGLVKPSQTLSLTCTVSGFSLTNYHLQWVRQPPGKGLEWIGFIRSSGNTEYNPSLKSRVTISRDTSKNQVSLKLSSVTAADTAVYYCARKRWVHGTWYSPGYYVMDAWGQGTLVTVSSASTKGPSVFPLAPSSKSTSGGTAALGCLVKDYFPEPVTVSWNSGALTSGVHTFPAVLQSSGLYSLSSVVTVPSSSLGTQTYICNVNHKPSNTKVDKRVEPKSCDKTHTCPPCPAPEAEGAPSVFLFPPKPKDTLMISRTPEVTCVVVDVSHEDPEVKFNWYVDGVEVHNAKTKPREEQYNSTYRVVSVLTVLHQDWLNGKEYKCKVSNKALPSSIEKTISKAKGQPREPQVYTLPPSREEMTKNQVSLTCLVKGFYPSDIAVEWESNGQPENNYKTTPPVLDSDGSFFLYSKLTVDKSRWQQGNVFSCSVMHEALHNHYTQKSLSLSPGK
light: DIQLTQSPSAMSASVGDRVTITCRASQGISNYLAWYQQKPGKAPKLLIYAASTLQSGVASRFSGRGSGTDFTLTISSLQPEDFATYYCQQSDILPYTFGQGTKVEIKRTVAAPSVFIFPPSDEQLKSGTASVVCLLNNFYPREAKVQWKVDNALQSGNSQESVTEQDSKDSTYSLSSTLTLSKADYEKHKVYACEVTHQGLSSPVTKSFNRGEC
notes: INX444 of WO19136300 converted to the IgG1EN backbone (L234A, L235E, G237A, A330S, P331S, EU numbering)
B2: anti-human MCT1 antibody Ab1 (antibody, human IgG1, kappa, V domains shown)
VH: QVQLVQSGAEVKKPGASVKVSCTVSGFSLTNYHLQWVRQAPGQGLEWMGFIRSSGNTEYNSEFKSRVTMTRDTSTSTVYMELSSLRSEDTAVYYCARNSWYHGTYYSPGYYVMDAWGQGTLVTVSS
VL: EIVLTQSPGTLSLSPGERATLSCKGSQNINNYLAWYQQKPGQAPRLLIYNRHNLQTGIPDRFSGSGSGTDFTLTISRLEPEDFAVYYCYQYSDGYTFGGGTKVEIKR
notes: human IgG1 effector null (IgG1EN) backbone; also called humanized Framework antibody Ab1
B3: anti-human MCT1 antibody Ab6 (antibody, human IgG1, kappa)
heavy: QVQLVQSGAEVKKPGASVKVSCTVSGRSLTNYHLQWVRQAPGQGLEWMGFIRSSGNTEYNSRFKSRVTMTRDTSTSTVYMELSSLRSEDTAVYYCARNRWYHGTYYSPGYYVMDAWGQGTLVTVSSASTKGPSVFPLAPSSKSTSGGTAALGCLVKDYFPEPVTVSWNSGALTSGVHTFPAVLQSSGLYSLSSVVTVPSSSLGTQTYICNVNHKPSNTKVDKRVEPKSCDKTHTCPPCPAPEAEGAPSVFLFPPKPKDTLMISRTPEVTCVVVDVSHEDPEVKFNWYVDGVEVHNAKTKPREEQYNSTYRVVSVLTVLHQDWLNGKEYKCKVSNKALPSSIEKTISKAKGQPREPQVYTLPPSREEMTKNQVSLTCLVKGFYPSDIAVEWESNGQPENNYKTTPPVLDSDGSFFLYSKLTVDKSRWQQGNVFSCSVMHEALHNHYTQKSLSLSPGK
light: EIVLTQSPGTLSLSPGERATLSCKGSQNIENYLAWYQQKPGQAPRLLIYNRHNLQTGIPDRFSGSGSGTDFTLTISRLEPEDFAVYYCYQYSDGYTFGGGTKVEIKRTVAAPSVFIFPPSDEQLKSGTASVVCLLNNFYPREAKVQWKVDNALQSGNSQESVTEQDSKDSTYSLSSTLTLSKADYEKHKVYACEVTHQGLSSPVTKSFNRGEC
notes: IgG1EN backbone

Assays:
[1] = target: T2, human FcγRI (CD64) extracellular domain (human, UniProt P12314 16-292); experiment: SPR (Biacore T100), antibody captured on Protein A, FcγR ECD as analyte, 25 C
T2 construct: extracellular domain; also called FcγRI ECD
Protocol: Unreacted sites were blocked with a 7 minute injection of ethanolamine at 10 μL/minute. […] FC1 was the reference FC, therefore no antibody was captured in FC1. […] Regeneration was performed by injecting 15 μL of 10 mM glycine, pH 1.5, at 30 μL/minute over all FCs. […] The affinity (KD) was calculated using either steady state equilibrium analysis with the Scrubber 2 Biacore Evaluation Software or a “1:1 (Langmuir) binding” model in BIA Evaluation. […] Duplicate injections of each concentration were injected over all FCs at 40 μL/minute for 60 seconds followed by a 120 second dissociation phase. […] The affinity (KD) was calculated using the steady state equilibrium analysis with the Scrubber 2 Biacore Evaluation Software.

[2] = target: T1, human monocarboxylate transporter 1 …; experiment: competition MSD binding assay, antibody titrated with HEK WT cells expressing MCT1, apparent KD, screening at 25 C
Protocol: The mix was incubated at 37° C. for 1-2 days. After incubation, the incubated samples were spun down for 5 min at 500×g to remove cells. A 96-well multi-array plate (Meso Scale Diagnostics, Cat. #L15XA-3) was coated at 4° C. overnight with 1 μg/mL of goat anti human FC in phosphate buffered saline (PBS). Following coating, plates were washed 3 times with 150 μL PBST (PBS with 0.05% Tween 20) and blocked with 150 μL/well of PBS 3% blocker A buffer (Cat #R93BA-1) at 25° C. for 1 hr. Plates were then washed 3 times with PBST. 50 μL of the preincubated antibody: cell dilution series was transferred to the wells and incubated at 25° C. with 700 rpm shaking for 1 hr. Plates were washed 3 times with PBST. Then 100 μL of 1 μg/mL anti-human kappa-biotin antibody (Cat. #2060-08) was added, and plates were incubated at 25° C. with 700 rpm shaking […]. Plates were washed 3 times with PBST, followed by addition of 100 μL of 1 μg/mL MSD Sulfo-tag streptavidin antibody (Meso Scale Diagnostics Cat. #R32 AD1), and plates were incubated at 25° C. with 700 rpm shaking for 1 hr. Plates were washed 3 times with PBST, 150 μL/well of 1× Read Buffer T was added to the wells and analyzed on a SECTOR® Imager 6000 (Meso Scale Diagnostics) 15 min after buffer addition. The apparent KD is determined by fitting a sigmoidal curve to the electrochemiluminescence (ECL) response vs. log (MCT1 receptor concentration) using assay development tool kit graphed with normalized ECL values.

[3] = target: T1, human monocarboxylate transporter 1 …; experiment: competition MSD binding assay, antibody titrated with HEK WT cells expressing MCT1, apparent KD, 37 C, average of triplicate
Excerpt: Plates were then washed 3 times with PBST. […] Plates were washed 3 times with PBST.

[4] = target: T1, human monocarboxylate transporter 1 …; experiment: cell-based or functional assay
[5] = target: T1, human monocarboxylate transporter 1 …; experiment: cell-based or functional assay; remark: listed apart in the source
[6] = target: T1, human monocarboxylate transporter 1 …; experiment: cell-based or functional assay; remark: listed apart in the source
[7] = target: T3, Human C1q (human, UniProt P02745 23-245; P02746 28-253; P02747 29-245); experiment: ELISA, antibody coated on plate, human C1q detected with anti-human C1q-HRP (results not shown)
T3 construct: Bought (MS Biomedical); also called complement component C1q
T3 sequence (P02745 23-245 limits assumed, chain 1 of 3): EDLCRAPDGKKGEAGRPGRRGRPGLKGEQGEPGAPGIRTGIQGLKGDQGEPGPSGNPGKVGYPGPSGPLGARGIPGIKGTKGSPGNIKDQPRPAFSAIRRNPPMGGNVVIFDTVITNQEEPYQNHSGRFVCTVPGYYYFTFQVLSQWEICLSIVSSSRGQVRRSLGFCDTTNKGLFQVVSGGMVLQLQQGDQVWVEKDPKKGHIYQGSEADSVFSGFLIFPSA
T3 sequence (P02746 28-253 limits assumed, chain 2 of 3): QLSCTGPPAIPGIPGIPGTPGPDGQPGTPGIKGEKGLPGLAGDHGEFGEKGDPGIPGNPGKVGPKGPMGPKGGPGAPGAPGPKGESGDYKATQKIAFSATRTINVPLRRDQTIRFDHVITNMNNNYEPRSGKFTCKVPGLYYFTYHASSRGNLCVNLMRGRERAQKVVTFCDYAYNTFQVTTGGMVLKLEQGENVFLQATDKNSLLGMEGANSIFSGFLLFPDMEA
T3 sequence (P02747 29-245 limits assumed, chain 3 of 3): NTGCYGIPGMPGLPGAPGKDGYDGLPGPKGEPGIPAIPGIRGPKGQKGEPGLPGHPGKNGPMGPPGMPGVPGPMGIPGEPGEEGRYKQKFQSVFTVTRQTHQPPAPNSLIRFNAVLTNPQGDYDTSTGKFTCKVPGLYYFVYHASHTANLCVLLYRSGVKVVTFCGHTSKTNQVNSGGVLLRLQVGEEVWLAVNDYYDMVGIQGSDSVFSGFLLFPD

T2 sequence (P12314 16-292): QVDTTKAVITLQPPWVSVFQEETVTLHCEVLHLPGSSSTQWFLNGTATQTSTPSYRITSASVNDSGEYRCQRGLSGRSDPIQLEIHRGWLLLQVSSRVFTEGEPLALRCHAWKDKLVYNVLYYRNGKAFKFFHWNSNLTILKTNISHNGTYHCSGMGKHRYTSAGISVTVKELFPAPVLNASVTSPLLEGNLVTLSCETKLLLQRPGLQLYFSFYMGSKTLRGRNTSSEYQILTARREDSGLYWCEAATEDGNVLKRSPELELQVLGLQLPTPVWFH

Binder | binding result [1] | Kd [2] | Kd [3] | IC50 of inhibition of MCT1 mediated transport (bromopyruvate assay, HEK293T cells) [4] | IC50 of inhibition of CD4 T cell proliferation [5] | IC50 of inhibition of CD8 T cell proliferation [5] | IC50 of inhibition of B cell proliferation, Average of 3 donors [6] | IC50 of inhibition of B cell proliferation, Donor1 [6] | IC50 of inhibition of B cell proliferation, Donor3 [6] | binding result [7]
B1 | no binding (tested: 200 nM) | – | – | – | – | – | – | – | – | –
B2 | – | 5.81 nM | 1.23 nM | 164 nM | 59 nM | 42 nM | – | – | – | –
B3 | – | 1.27 nM | 0.59 nM | 25 nM | 3 nM | 3 nM | 2.95 nM | 3.06 nM | 3.38 nM | no binding
